Reference: patent US20210324359A1, “USE OF GRAM-NEGATIVE LYSIN-ANTIMICROBIAL PEPTIDE (AMP) POLYPEPTIDE CONSTRUCTS IN TREATING ENDOCARDITIS” (priority 2020, published 2021)

B1: GN316: lysin obtained from Klebsiella phage 0507-KN2-1 (SEQ ID NO: 22) (protein)
chain: MAILKIGSKGLEVKNLQTSLNKIGFNLVADGIFGKATDNAVRAVQAGAGLVVDGIAGPKTMYAIRNAGESHQDHLTEADLIDAARELSVDLASIKAVNQVESRGTGFTKSGKIKTLFERHIMYKKLNAKFGQAKANALAQLYPTLVNAKAGGYTGGDAELERLHGAIAIDKDCAYESASYGLFQIMGFNCVICGYDNAEEMFNDFLTGERAQLMAFVKFIKADANLWKALKDKNWAEFARRYNGPAYAQNQYDTKLAAAYKSFS
modifications: (1)..(264) GN316 lysin
B2: GN122: lysin obtained from Pseudomonas putida strain PA14H7 (SEQ ID NO: 218) (protein, listed as Pseudomonas putida)
chain: MSIFSFVKEAGEKLIDLLTPGNANASEQLKEHVSKVGLGNPNIQTTVEGSKVTVTGEVASQEEKEKILLALGNIAGVESVDDQITVTGPLVAAARFVVVKKGDTLSAISLAVYGNANQYNKIFEANKPLLSHPDKIYPGQTLRIPE
B3: GN76: lysin obtained from Acinetobacter phage vB_AbaP_CEB1 (SEQ ID NO: 203) (protein)
chain: MILTKDGFGIIRNELFGGKLDQTQVDAINFIVEKATESGLSYPEAAYLLATIYHETGLPSGYRTMQPIKEAGSDNYLRSKKYYPYIGYGYVQLTWKENYGRIGKLIGIDLIKNPEKALEPLIAIQIAIKGMLNGWFTGVGFRRKRPVSKYNKQQYIAARNIINGKDKAELIAKYAIIFERALRSL
modifications: Acinetobacter phage vB_AbaP_CEB1
B4: GN93: lysin-AMP construct: cationic peptide (SEQ ID NO: 120) and linker N-terminal to GN14 lysin (SEQ ID NO: 62) (protein)
chain: MKFFKFFKFFKAGAGAGAGAGAGAGAGASNNELPWVAEARKYIGLREDTSKTSHNPKLLAMLDRMGEFSNESRAWWHDDETPWCGLFVGYCLGVAGRYVVREWYRARAWEAPQLTKLDRPAYGALVTFTRSGGGHVGFIVGKDARGNLMVLGGNQSNAVSIAPFAVSRVTGYFWPSFWRNKTAVKSVPFEERYSLPLLKSNGELSTNEA

Assays:
[1] = test system: biofilms formed by P. aeruginosa strain ATCC 17646; details: strain ATCC 17646 biofilm
Protocol: Biofilms are then washed and treated with e.g., a 2-fold dilution series of the lysin in TSBg at e.g., 37° C. for 24 hours. After treatment, wells are washed, air-dried at e.g., 37° C. and stained with e.g., 0.05% crystal violet for 10 minutes.

P. aeruginosa = assay: MIC, modified CLSI broth microdilution in CAA medium without or with […] human serum (Table 4); format: cell-based, Pseudomonas aeruginosa; details: for CAA MIC: CAA medium, no human serum; for CAA/HuS MIC: CAA supplemented with […] human serum; for CAA/HuS MIC: CAA supplemented with 2.5% human serum
Description: 2015. […] Clinical and Laboratory Standards Institute, Wayne, Pa.

[2] = test system: carbepenam-resistant clinical isolate WC-453; assay: MIC in CAA without or with 25% human serum (Table 5); format: cell-based, Pseudomonas aeruginosa; set-up: CAA MIC: unit not given here; details: for CAA/HuS MIC: CAA supplemented with 25% human serum
Protocol: MIC values were determined using a modification of the standard broth microdilution reference method defined by the Clinical and Laboratory Standards Institute (CLSI), CLSI. […] Methods for Dilution Antimicrobial Susceptibility Tests for Bacteria That Grow Aerobically; Approved Standard-10th Edition. Clinical and Laboratory Standards Institute, Wayne, Pa.

[3] = test system: Pseudomonas aeruginosa strain CFS-1292 (meropenem resistant); details: strain CFS-1292; no added cations
Protocol: The activity of selected GN lysins and constructs in the presence of divalent cations was evaluated, and the impact of divalent cations at physiological concentrations was examined in the MIC assay format.

[4] = test system: P. aeruginosa strain WC-453; assay: Time-kill assay in HEPES or CAA with 25% human serum (Tables 7, 8); format: cell-based, Pseudomonas aeruginosa; details: for bactericidal activity (CFU decrease of 3-Log10, 3 hours after the addition of lysin): 10 μg/mL, enumerated lysins in CAA/HuS, general statement for HEPES and CAA/HuS; for CAA/HuS (Log10 CFU/mL), 1 hr / CAA/HuS (Log10 CFU/mL), 3 hr: CAA + 25% human serum; for CAA/HuS (Log10 CFU/mL), 1 hr / CAA/HuS (Log10 CFU/mL), 3 hr / HEPES (Log10 CFU/mL), 1 hr / HEPES (Log10 CFU/mL), 3 hr: lysin 10 μg/ml, WC-453; for HEPES (Log10 CFU/mL), 1 hr / HEPES (Log10 CFU/mL), 3 hr: 25 mM HEPES pH 7.4
Protocol: Exponential phase bacteria were then pelleted and resuspended in 1/5 culture volume of 25 mM HEPES, pH 7.4 before a final adjustment to an optical density corresponding to a McFarland value of 0.5. […] All treatments were incubated at 37° C. with aeration. At time points before the addition of lysin (or buffer control) and at 1 hour and 3 hours intervals thereafter, culture samples were removed for quantitative plating on CAA agar plates.

Molecule | MBEC [1] | CAA MIC (P. aeruginosa) | CAA/HuS MIC (P. aeruginosa) | activity in CAA supplemented with human serum (25%) [2] | CAA MIC [2] | CAA/HuS MIC [2] | MIC in 25% CAA [3] | bactericidal activity (CFU decrease of 3-Log10, 3 hours after the addition of lysin) [4] | CAA/HuS (Log10 CFU/mL), 1 hr [4] | CAA/HuS (Log10 CFU/mL), 3 hr [4] | HEPES (Log10 CFU/mL), 1 hr [4] | HEPES (Log10 CFU/mL), 3 hr [4]
B1 | 1 µg/mL | 16000 µg/mL | 125 µg/mL | active | 16 | <0.0625 | 4 µg/mL | bactericidal activity | 5.1 Log10 CFU/mL | <3.7 Log10 CFU/mL | – | –
B2 | 1 µg/mL | – | – | active | 2 | 2 | – | – | 6.7 Log10 CFU/mL | 6.7 Log10 CFU/mL | 7.7 Log10 CFU/mL | 5.4 Log10 CFU/mL
B3 | 0.125 µg/mL | – | – | active | 64 | 8 | – | bactericidal activity | 5.7 Log10 CFU/mL | <3.7 Log10 CFU/mL | <3.7 Log10 CFU/mL | <3.7 Log10 CFU/mL
B4 | 0.125 µg/mL | 128000 µg/mL | 8000 µg/mL | active | 128 | 8 | – | bactericidal activity | 6.6 Log10 CFU/mL | <3.7 Log10 CFU/mL | 6.0 Log10 CFU/mL | <3.7 Log10 CFU/mL
